According to patent US20160355836:
Substitutions are numbered along the chain they refer to.

Tests used:
[1] = system: T1, GST-PT8-CTS512A
T1 sequence: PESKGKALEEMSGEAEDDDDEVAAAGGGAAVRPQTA

[2] = system: T2, GST-PT8-CTS517A
T2 sequence: T1 sequence with A7S, S12A

[3] = system: T3, GST-PT8-CTS517 (not phosphorylated)
T3 sequence: T1 sequence with A7S

GST-CK2α3
in vitro phosphorylation assay ([γ-32P]ATP) [1]: Mutation of S517, but not S512, prevented phosphorylation of PT8-CT
in vitro phosphorylation assay ([γ-32P]ATP) [2]: Mutation of S517, but not S512, prevented phosphorylation of PT8-CT
in vitro phosphorylation assay ([γ-32P]ATP) [3]: the PT8-CT was phosphorylated by the catalytic subunit CK2 α3
